Sequences and labels used below:
B1: biotinylated CBP-1 cofactor peptide (CREB-binding protein coactivator motif 1) (peptide)
peptide: Biotin-NLVPDAASKHKQLSELLRGGSGS
notes: coupled to Tb-streptavidin in the assay; also called CBP-1 peptide; CBP-derived peptide; source: bought: Eurogentec GmbH
B2: free RXRα total mutant LBD (unlabeled) (domain or fragment, human, UniProt P19793-1 223-462, looked up)
chain: TSSANEDMPVERILEAELAVEPKTETYVEANMGLNPSSPNDPVTNICQAADKQLFTLTEWAERIPHFSELPLDDQTILLRAGWNELLIASFSHRSIAVKDGILLATGLHVHRNSAHSAGVGAIFDRVLTELVSKMRDMQMDKTELGCLRAIVLFNPDSKGLSNPAEVEALREKVYASLEAYCKHKYPEQPGRFAKLLLRLPALRSIGLKCLEHLFFFKLIGDTPIDTYLMRMLEAPHQMT
notes: retinoid X receptor alpha (RXRα) LBD, human, residues 223-462 (pMal construct), five AF-2 mutations; also called unlabeled recruitment-incapable RXRα LBD (total mutant); unlabeled mutant RXRα LBD; source: E. coli T7 express, coexpressed with GroEL/ES, purified (Ni IMAC, MBP-TEV, amylose flow through, SEC); not shown: MBP, N-terminal, cleaved; His8, N-terminal, cleaved
B3: sGFP-PPARγ LBD:RXRα total mutant LBD (unlabeled) heterodimer (complex, human)
chain 1: PESADLRALAKHLYDSYIKSFPLTKAKARAILTGKTTDKSPFVIYDMNSLMMGEDKIKFKHITPLQEQSKEVAIRIFQGCQFRSVEAVQEITEYAKSIPGFVNLDLNDQVTLLKYGVHEIIYTMLASLMNKDGVLISEGQGFMTREFLKSLRKPFGDFMEPKFEFAVKFNALELDDSDLAIFIAVIILSGDRPGLLNVKPIEDIQDNLLQALELQLKLNHPESSQLFAKLLQKMTDLRQIVTEHVQLLQVIKKTETDMSLHPLLQEIYKDLY
chain 2: B2 chain
notes: PPARγ isoform 2 LBD, human, UniProt P37231-1, residues 234-505; RXRα LBD, human, residues 223-462, five AF-2 mutations; also called LBD:LBD heterodimer with RXRα; source: mixed from the purified E. coli proteins (100 nM sGFP-PPARγ LBD, RXRα total mutant LBD titrated); not shown: His10, N-terminal, cleaved; sGFP, N-terminal, kept; MBP, N-terminal, cleaved; His8, N-terminal, cleaved

No end group written: not given here. *: point of attachment. Biotin = O=C1N[C@H]2[C@H](CS[C@H]2CCCCC(=O)*)N1 Some results are limits rather than exact numbers.

What all share (settings): both partners purified
For one assay, the target named is T1, label-free PPARγ LBD (human, UniProt P37231-1 234-505).
T1 construct: PPARγ isoform 2 LBD, human, UniProt P37231-1, residues 234-505; also called PPARγ LBD without sGFP-tag; PPARγ LBD devoid of any label; source: E. coli T7 express, coexpressed with GroEL/ES, purified (Ni IMAC, TEV, reverse IMAC, SEC); not shown: His10, N-terminal, cleaved
T1 sequence (looked up): B3 chain 1
Put plainly: AlphaScreen or HTRF; heterodimer coactivator recruitment; 100 nM label-free PPARγ LBD, 2 μM sGFP-RXRα LBD total mutant, 12 nM biotinylated CBP-1 on 12 nM Tb-SA; rosiglitazone titrated (also with 50 μM SR11237); 0.1% CHAPS, 1% DMSO, RT. For orientation: Alpha assays give light when donor and acceptor beads are brought close together.

The target of a further assay is T2, sGFP-PPARγ LBD (human, UniProt P37231-1 234-505).
T2 construct: PPARγ isoform 2 LBD, human, UniProt P37231-1, residues 234-505; also called PPARγ coupled to sGFP; source: E. coli T7 express, coexpressed with GroEL/ES, purified (Ni IMAC, TEV, reverse IMAC, SEC); not shown: His10, N-terminal, cleaved; sGFP, N-terminal, kept
T2 sequence (looked up): B3 chain 1
Briefly: AlphaScreen or HTRF; unlabeled RXRα total mutant LBD titrated (up to 8 μM) against 100 nM sGFP-PPARγ LBD, 12 nM Tb-SA, 12 nM biotinylated CBP-1; no ligand (or SR11237 at ≤1 nM).

Assay [1] deals with B1. The assay is described as above.

On to B1, for which, in the assay with label-free PPARγ LBD, the binding result is reported as “binds”.

For B2, the binding result with sGFP-PPARγ LBD is recorded as “binds”.

On to B3, for which the “CBP-1 recruitment relative to that seen with rosiglitazone (%)” value in assay [1] was no more than 5%.

Values taken from paper PMC8258697 (The Journal of Biological Chemistry, 2021).
